{"source": "patent US20240254209A1", "about": "(published 2024)", "binders": {"B1": {"name": "human IgE mAb 38B7 (antibody, V domains shown)", "VH": "QVQLVESGGGVVQPGRSLRLSCVGSGFTFRRDAKYWVRQAPGKGLEWVAAISHDGGEEDYAESVKGRFTISRDNSRETVYLEMNSLRPEDTAVYYCATTRSGWYFDYWGQGALVTVSS", "VL": "EIVLTQSPATLSLSPGARATLSCRASQSVDTYLAWYQQRRGQSPRLLIYDASKRATGIPARFSGSGSGTDFTLTISSLEPEDFAVYYCQQRNNWRTWTFGQGTKVEIN", "notes": "human IgE from hybridoma"}}, "key": {"[1]": {"target": "T1, Ara h 2 peptide DSYERDPYSPSQDPY", "T1 construct": "peptide of the Luminex peptide array", "T1 peptide": "DSYERDPYSPSQDPY", "experiment": "Luminex peptide array", "excerpt": "(§1) Peptide microarray. The inventor used peptide arrays to help determine the approximate locations of the antigenic sites targeted by his human IgE mAbs. In collaboration with Dr. Hugh Sampson at Mount Sinai he tested Ara h 2-specific IgE mAbs using a Luminex peptide array technology (Shreffler et al., 2004). […] Several of the Ara h 2 site CR-A-specific IgE mAbs, however, bound strongly to peptide […] at the C-terminus of the allergen protein. Ara h 2 site SP-B-specific antibody 38B7, which competes with all Ara h 2 site CR-B antibodies, bound to two peptides […] and […]. […] In that paper the authors used the fusion protein to define an immunodominant population of IgE antibodies in the sera of peanut allergic subjects, which is the population the inventor defines here as site CR-B, the immunodominant antigenic site of Ara h 2. This region has also been described previously as being an immunodominant target of the Ara h 2 and Ara h 6 IgE antibody response seen in human sera (Chen et al., 2016). These peptides make up the disordered loop between helices 2 and 3 of Ara h 2, the region that differs between Ara h 2.01 and Ara h 2.02 isoforms, not present in the crystal structure due to its high degree of flexibility. […]"}, "[2]": {"target": "T2, Ara h 2 peptide PYSPSQDPYSPSPYD", "T2 construct": "peptide of the Luminex peptide array", "T2 peptide": "PYSPSQDPYSPSPYD", "experiment": "Luminex peptide array", "excerpt": "as §1"}, "peanut allergen Ara h 3": {"target": "T3, peanut allergen Ara h 3 (peanut (Arachis hypogaea))", "T3 construct": "also called F424", "experiment": "ImmunoCAP, hybridoma supernatant", "description": "(§2) Verification and validation of IgE mAbs peanut allergen specificity. Following the unbiased generation of IgE secreting human hybridomas from peanut allergic subject PBMCs, peanut protein binding and peanut allergen protein specificity was determined. Hybridoma culture supernatant was initially used for this validation. […] Using the available ImmunoCAP components (purified allergen proteins: Ara h 1, F422; Ara h 2, F423; Ara h 3, F424; Ara h 8 F352; Ara h 9 F427), the exact allergen specificity was determined for those which bound Ara h 1, 2, and 3.\n(§3) Hybridoma cell culture supernatant was used for initial identification of allergen specificity using ImmunoCAP analysis. Peanut reactivity was first determined using peanut ImmunoCAP. Component analysis identified IgE antibodies specific for Ara h 1, 2, and 3. All antibodies not identified in this table were determined to bind Ara h 6."}, "peanut allergen Ara h 9": {"target": "T4, peanut allergen Ara h 9 (peanut (Arachis hypogaea))", "T4 construct": "ImmunoCAP component F427; also called F427", "experiment": "ImmunoCAP, hybridoma supernatant", "description": "as §2, §3"}, "peanut allergen Ara h 8": {"target": "T5, peanut allergen Ara h 8 (peanut (Arachis hypogaea))", "T5 construct": "ImmunoCAP component F352; also called F352", "experiment": "ImmunoCAP, hybridoma supernatant", "description": "as §2, §3"}}}
{"binder": "B1", "values": [{"measurement": "binding result", "setting": "[1]", "value": "binds"}, {"measurement": "binding result", "setting": "[2]", "value": "binds"}, {"measurement": "ImmunoCAP kUA/L", "setting": "peanut allergen Ara h 3", "value": 0.23, "unit": "kUA/L"}, {"measurement": "ImmunoCAP kUA/L", "setting": "peanut allergen Ara h 9", "value": 0.11, "unit": "kUA/L"}, {"measurement": "ImmunoCAP kUA/L", "setting": "peanut allergen Ara h 8", "value": 0.15, "unit": "kUA/L"}]}
